This data set relates to ATP. As to the kind of experiment: switch fluorescence ratio, 500 uM ATP over buffer (Cy3 cluster intensity, sum of 5 cycles each) (fold (ratio)); higher = stronger signal-on switching upon ATP binding; sequences stand for … in TCGTCGGCAGCGTCAGATGTGTATAAGAGACAGTTTTTTTTTTTTTTTTTTTTTTTTT…TC. To be noted: aptamer strand: ATP DNA aptamer (quencher-CACCTGGGGGAGTATTGCGGAGGAAGG + anchor), 100 nM annealed; ATP concentration: 500 uM. The gist of the method: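 Cy3-labelled switching-strand clusters on a modified Illumina MiSeq flow-cell were annealed to 100 nM quencher-labelled ATP aptamer, imaged in selection buffer, then imaged after 15 min with 500 uM ATP at 22 °C. Five buffer/ATP cycles ran, with NaOH stripping and re-annealing between them. The fluorescence ratio is summed target-cycle over summed buffer-cycle Cy3 intensity per cluster, averaged per switch-domain sequence. Clusters outside 100-1000 RFU were excluded.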

In the supplement of paper PMC10126150 one finds switch fluorescence ratio data, which are given here for 78 sequences.

± gives the standard deviation of the averaged measurements.
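Note: ATP exposure 15 min at 22 °C before imaging.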

TCCAAGGGTA: the switch fluorescence ratio was determined as 0.997 ± 0.025.

Consider TAGATCAATG, for which the switch fluorescence ratio amounted to 1.02 ± 0.024.

With TAGAGGGCGG, the switch fluorescence ratio worked out at 1.03 ± 0.012.

As for CAGAGACCTG, the switch fluorescence ratio stood at 1.02 ± 0.057.

TATAATGGCT: the switch fluorescence ratio turned out to be 0.9555 ± 0.0054.

GTGTTCGAGT: the switch fluorescence ratio is 0.986 ± 0.034.

In the case of CACTGACTTA, the switch fluorescence ratio stood at 1.19 ± 0.032.

Consider ATGGGAGTTT, for which the switch fluorescence ratio is 1.01 ± 0.01.

Turning to TTCAGGGAGA, the switch fluorescence ratio was determined as 1.005 ± 0.008.

As to CTCAATGTAT, the switch fluorescence ratio is 0.989 ± 0.032.

Consider CCTGCTTGGT, for which the switch fluorescence ratio came out at 1.029 ± 0.0082.

Regarding AGCAAATTCG, the switch fluorescence ratio amounted to 1.04 ± 0.016.

With ATGTTGGAAT, the switch fluorescence ratio came out at 1.04 ± 0.028.

In the case of GATTGCACTT, the switch fluorescence ratio was found to be 1.02 ± 0.031.

ATGTTGTCAG: the switch fluorescence ratio worked out at 0.987 ± 0.027.

For CTAATGTGCC, the switch fluorescence ratio amounted to 0.993 ± 0.052.

For ACTAGTTTTC, the switch fluorescence ratio stood at 0.9611 ± 0.0091.

GGAGTCATAC: the switch fluorescence ratio stood at 1.63 ± 0.035.

On to TTCGACGCTA, for which the switch fluorescence ratio was determined as 1.33 ± 0.57.

On to AGGGATTTTT, for which the switch fluorescence ratio amounted to 0.999 ± 0.011.

In the case of TCACGGTGCT, the switch fluorescence ratio came to 1.15 ± 0.19.

For TTGGCCTATA, the switch fluorescence ratio is 0.973 ± 0.021.

Consider GCAGTCCCGT, for which the switch fluorescence ratio was 1.03 ± 0.015.

For GGGTAGCTCT, the switch fluorescence ratio amounted to 1.06 ± 0.076.

For the sequence ACTATGACGT, the switch fluorescence ratio worked out at 1.04 ± 0.017.

In the case of TAATGCAATT, the switch fluorescence ratio stood at 1.018 ± 0.0064.

Consider TTGAGTGGTC, for which the switch fluorescence ratio worked out at 0.997 ± 0.016.

For TTTCGTGGTT, the switch fluorescence ratio turned out to be 0.937 ± 0.021.

AGCAGAGGGT: the switch fluorescence ratio was 0.994 ± 0.04.

On to GGGATAAAGA, for which the switch fluorescence ratio came out at 1.001 ± 0.003.

For CCGGGTTTGG, the switch fluorescence ratio came out at 0.984 ± 0.017.

As to TTTCCTTGTG, the switch fluorescence ratio is 1.36 ± 0.53.

For the sequence GATTTCTTAT, the switch fluorescence ratio is 0.999 ± 0.052.

In the case of GGCTAGAATC, the switch fluorescence ratio is 0.986 ± 0.024.

Consider TTTTCCTAAC, for which the switch fluorescence ratio was determined as 0.999 ± 0.071.

Turning to TTAGTGTTTT, the switch fluorescence ratio amounted to 0.98 ± 0.05.

With ACTAAGGGCG, the switch fluorescence ratio turned out to be 1.09 ± 0.019.

For the sequence GCCGTAGACC, the switch fluorescence ratio was 0.9994 ± 0.0092.

On to GCAGGTCGCG, for which the switch fluorescence ratio amounted to 1.01 ± 0.024.

Regarding GGCCGTAGAA, the switch fluorescence ratio stood at 0.985 ± 0.032.

As for GGGGCTAGAT, the switch fluorescence ratio was 1.034 ± 0.0076.

In the case of ATATGAATGA, the switch fluorescence ratio was determined as 1.01 ± 0.015.

Take CAATCATGTC: the switch fluorescence ratio came out at 1.04 ± 0.05.

Consider TAGACGGGCA, for which the switch fluorescence ratio was determined as 1.01 ± 0.015.

As for TGCGACAGTT, the switch fluorescence ratio was found to be 1.006 ± 0.0029.

On to GGTGTTATGC, for which the switch fluorescence ratio came out at 1.01 ± 0.015.

Take GGCGAAGTGC: the switch fluorescence ratio was found to be 1.03 ± 0.013.

As to GAGCAAAGGT, the switch fluorescence ratio worked out at 1.04 ± 0.031.

As for CGGGGGAGGC, the switch fluorescence ratio came to 0.96 ± 0.018.

For TGGGAGGACG, the switch fluorescence ratio stood at 0.97 ± 0.038.

As to GATATAAGGG, the switch fluorescence ratio came out at 0.979 ± 0.042.

Consider AATTTATAAT, for which the switch fluorescence ratio turned out to be 1.01 ± 0.036.

As for ACGAGTGAAA, the switch fluorescence ratio was found to be 1.02 ± 0.045.

Turning to AGGTATGGTT, the switch fluorescence ratio was found to be 0.984 ± 0.024.

With CGGGGTATAG, the switch fluorescence ratio amounted to 1.37 ± 0.52.

CGGGGGGATA: the switch fluorescence ratio turned out to be 1.07 ± 0.15.

As to AGTTTATCGT, the switch fluorescence ratio was 1.03 ± 0.043.

Turning to AGGATAAGCT, the switch fluorescence ratio was found to be 1.1 ± 0.17.

Consider CACGGAAGCA, for which the switch fluorescence ratio stood at 1.07 ± 0.019.

Take ACGGAATTTT: the switch fluorescence ratio amounted to 1.09 ± 0.08.

Take TTCTAAAAAA: the switch fluorescence ratio stood at 1.01 ± 0.021.

On to AAGGGGCTTC, for which the switch fluorescence ratio was 0.985 ± 0.033.

TCGGTGCGAC: the switch fluorescence ratio is 1.04 ± 0.032.

For TTAATGGCTA, the switch fluorescence ratio stood at 0.976 ± 0.021.

Turning to TTCAACGACG, the switch fluorescence ratio was found to be 0.988 ± 0.082.

With ACCAGGGTCA, the switch fluorescence ratio came to 1.05 ± 0.034.

For GTAATGCCAG, the switch fluorescence ratio was 0.986 ± 0.031.

Consider ACTTTTGGGT, for which the switch fluorescence ratio is 0.9602 ± 0.0088.

As for TTAAGTGGTT, the switch fluorescence ratio amounted to 0.998 ± 0.011.

For the sequence GAGTATTATA, the switch fluorescence ratio worked out at 1 ± 0.025.

For GCATCATTCA, the switch fluorescence ratio worked out at 1.03 ± 0.017.

For the sequence TGTTGTTAAA, the switch fluorescence ratio turned out to be 0.982 ± 0.012.

In the case of GAATCCGGTT, the switch fluorescence ratio was found to be 0.989 ± 0.019.

For the sequence GCTAGGTCTA, the switch fluorescence ratio was found to be 1.01 ± 0.034.

For the sequence ATGGTCGGCC, the switch fluorescence ratio came out at 0.9831 ± 0.0052.

As to ACGGGGTGTA, the switch fluorescence ratio came out at 0.986 ± 0.041.

With TATCTACTGG, the switch fluorescence ratio stood at 1.0076 ± 0.00035.

Consider GGGGTATTTT, for which the switch fluorescence ratio was 0.997 ± 0.023.
